Here are results for 15 sequences from the supplement of paper PMC6755084.

The series deals with F1*subA RNA substrate (template-directed ligation). As to the kind of experiment: fraction ligated after 30 min (ligated reads / total reads); higher = more ligase activity; sequences stand for … in GAGACCGCAACTGAAAAGTTGT…TTTCTGCACGTAGAAGCAAAAGGC
Conditions: 42 °C, parent ribozyme: minF1. The method, then: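 Chip-synthesised pool of minF1 ligase ribozyme variants (single and double substitutions, single to quadruple deletions, bulge and P2 designed variants) was transcribed with T7 and reacted as a pool with excess substrate F1*subA for 30 min at 42 C in 50 mM EPPS pH 8.5, 25 mM MgCl2. Ligated and unligated RNAs were separated by PAGE, barcoded by RT and deep sequenced; fraction ligated = ligated reads / total reads, relative activity = FL / FL of wild-type minF1 (0.76); sequencing FL correlated with PAGE (R2 = 0.98). Sequences are the DNA template of the ribozyme.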
Regarding ATCAGAAATGGATGGGTT [4d310], the fraction ligated came out at 0.0014.
The same measure for ATCAGAAATGGATGGTTG [4d309]: 0.000441; for TATCAGAAAGGATGGGTT [4d1070]: 0.00116.
The same measure for TATCAGAAAGGATGGTTG [4d1069]: 0.000981; for TATCAGAAATGATGGGTT [4d1093]: 0; for TATCAGAAATGATGGGTTG [3d366]: 0.000941.
In the case of TATCAGAAATGATGGTTG [4d1092] it was 0.00043; in that of TATCAGAAATGGAGGGTTG [3d376], 0.00056; in that of TATCAGAAATGGATGGGTT [3d379], 0.00181.
TATCAGAAATGGATGGGTT [s45 (=3d379)]: the fraction ligated worked out at 0.00181.
Consider TATCAGAAATGGATGGTTA [3d377], for which the fraction ligated was found to be 0.00122.
In the case of TATCAGAAATGGATGGTTG [3d378] it was 0.00121; in that of TATCAGAAATGGTGGGTTG [3d372], 0.000922.
Take TATCAGAATGGATGGGTT [4d1042]: the fraction ligated is 0.00126.
In the case of TATCAGAATGGATGGTTG [4d1041], the fraction ligated was determined as 0.00128.
